Numbering of substitutions follows the chain as printed. Names may count otherwise.
What was measured:
[1] = biological target: T1, murine RAGE-strep tag fusion protein (murine, UniProt Q62151 23-343); assay: BIACORE capture assay: mRAGE-SA (SA-Mu RAGE) over antibody captured on anti-human Fc; 1:1 Langmuir global fit; FC3
T1 construct: also called mRAGE-strep; mRAGE-SA
T1 chain: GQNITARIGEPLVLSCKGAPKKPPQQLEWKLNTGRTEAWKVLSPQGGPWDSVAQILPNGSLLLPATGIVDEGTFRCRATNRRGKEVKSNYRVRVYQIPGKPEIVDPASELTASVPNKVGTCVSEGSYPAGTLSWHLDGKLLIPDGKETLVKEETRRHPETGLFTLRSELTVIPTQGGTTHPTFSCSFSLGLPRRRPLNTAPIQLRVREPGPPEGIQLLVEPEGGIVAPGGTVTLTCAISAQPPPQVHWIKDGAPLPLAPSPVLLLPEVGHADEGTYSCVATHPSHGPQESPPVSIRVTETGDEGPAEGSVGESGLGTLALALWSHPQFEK
Protocol: (§1) The assays were performed by coating anti-human Fc antibodies onto a CM5 BIA chip with 5000 RU (pH 5.0, 7 min.) in flow cells 1-4. Each antibody was captured by flowing at 2.0 μg/ml over the anti-Fc antibodies in flow cells 2-4 (flow cell 1 was used as a reference).

[2] = biological target: T2, cynomolgus monkey RAGE, on cells (cynomolgus monkey, UniProt Q15109 23-404 (human entry)); assay: cell-based ELISA, transfected 293 cells
T2 construct: on transfected 293 cells or endogenous in lung sections; also called 293-cyno monkey RAGE; RAGE in monkey lung
T2 chain: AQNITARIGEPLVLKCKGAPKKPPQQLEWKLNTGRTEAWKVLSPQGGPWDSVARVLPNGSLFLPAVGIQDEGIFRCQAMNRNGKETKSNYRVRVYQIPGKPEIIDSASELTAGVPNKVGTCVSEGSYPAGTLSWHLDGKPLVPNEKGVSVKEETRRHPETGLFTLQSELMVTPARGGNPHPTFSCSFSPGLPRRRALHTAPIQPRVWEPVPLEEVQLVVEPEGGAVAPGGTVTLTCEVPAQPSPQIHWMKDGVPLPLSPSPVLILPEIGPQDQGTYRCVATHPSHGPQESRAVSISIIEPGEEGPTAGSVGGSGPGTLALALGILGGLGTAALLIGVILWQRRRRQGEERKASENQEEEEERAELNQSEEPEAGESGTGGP
Protocol: (§2) Human embryonic kidney 293 cells (American Tissue Type Culture, Manassas, Va.) cells were plated at 5×10⁶ cells per 10 cm² tissue culture plate and cultured overnight at 37° C. The next day cells were transfected with RAGE expression plasmids (pAdori1-3 vector encoding mouse, human, baboon, cynomologus monkey or rabbit RAGE) using LF2000 reagent (Invitrogen, Carlsbad Calif.) at a 4:1 ratio of reagent to plasmid DNA using the manufacturers protocol. Cells were harvested 48 hrs post-transfection using trypsin, washed once with phosphate buffered saline (PBS), then suspended in growth media without serum at a concentration of 2×10⁶ cells/ml.
(§3) Primary antibodies at 1 μg/ml were serially diluted at 1:2 or 1:3 in PBS containing 1% bovine serum albumin (BSA) in a 96-well plate. RAGE-transfected 293 cells or control parental 293 cells (50 μl) at 2×10⁶ cells/ml in serum-free growth medium were added to U-bottom 96 well plate for a final concentration of 1×10⁵ cells/well. The cells were centrifuged at 1600 rpm for 2 minutes. The supernatants were gently discarded by hand with a one-time swing and the plate was patted gently to loose the cell pellet. The diluted primary anti-RAGE antibodies or isotype-matching control antibodies (100 μl) in cold PBS containing 10% fetal calf serum (FCS) were added to the cells and incubated on ice for 1 hour. The cells were stained with 100 μl of diluted secondary anti-IgG antibody HRP conjugates (Pierce Biotechnology, Rockford, Ill.) on ice for 1 hour. Following each step of primary antibody and secondary antibody incubations, the cells were washed 3 times with ice-cold PBS. 100 μl of substrate TMB1 component (BIO FX, TMBW-0100-01) was added to the plate and incubated for 5-30 minutes at room temperature. The color development was stopped by adding 100 μl of 0.18M H₂SO₄. The cells were centrifuged and the supernatants are transferred to a fresh plate and read at 450 nm (Soft MAX pro 4.0, Molecular Devices Corporation, Sunnyvale, Calif.).

baboon RAGE, on cells = biological target: T3, baboon RAGE, on cells (baboon, UniProt Q15109 23-404 (human entry)); assay: cell-based ELISA, transfected 293 cells
T3 construct: on transfected 293 cells or endogenous in lung sections; also called 293-baboon RAGE; RAGE in baboon lung
T3 chain: T2 chain with G347R
Protocol: as §2, §3

[3] = biological target: T4, murine RAGE, full length, on cells (murine, UniProt Q62151 23-402); assay: cell-based ELISA, transfected 293 cells
T4 construct: on transfected or infected 293 cells; also called 293-murine RAGE; cell-surface mRAGE
T4 chain: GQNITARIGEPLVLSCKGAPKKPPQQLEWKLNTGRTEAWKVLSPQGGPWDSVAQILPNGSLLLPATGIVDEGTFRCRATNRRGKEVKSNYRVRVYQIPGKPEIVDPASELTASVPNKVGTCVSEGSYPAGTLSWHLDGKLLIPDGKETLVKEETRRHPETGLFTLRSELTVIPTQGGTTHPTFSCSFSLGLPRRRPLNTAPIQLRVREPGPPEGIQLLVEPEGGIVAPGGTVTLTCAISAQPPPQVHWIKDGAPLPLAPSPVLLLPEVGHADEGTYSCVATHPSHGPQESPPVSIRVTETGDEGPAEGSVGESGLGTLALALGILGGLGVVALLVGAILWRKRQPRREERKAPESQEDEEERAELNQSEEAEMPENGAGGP
Protocol: as §2, §3

[4] = biological target: T5, human RAGE-strep tag fusion protein (human, UniProt Q15109 23-344); assay: BIACORE capture assay: hRAGE-SA over antibody captured on anti-human Fc; 1:1 Langmuir global fit; FC4
T5 construct: monomeric soluble human RAGE; also called hRAGE-SA; soluble human streptavidin-tagged RAGE
Protocol: as §1

T5 sequence (Q15109 other isoform, or with tags, fused parts or gaps): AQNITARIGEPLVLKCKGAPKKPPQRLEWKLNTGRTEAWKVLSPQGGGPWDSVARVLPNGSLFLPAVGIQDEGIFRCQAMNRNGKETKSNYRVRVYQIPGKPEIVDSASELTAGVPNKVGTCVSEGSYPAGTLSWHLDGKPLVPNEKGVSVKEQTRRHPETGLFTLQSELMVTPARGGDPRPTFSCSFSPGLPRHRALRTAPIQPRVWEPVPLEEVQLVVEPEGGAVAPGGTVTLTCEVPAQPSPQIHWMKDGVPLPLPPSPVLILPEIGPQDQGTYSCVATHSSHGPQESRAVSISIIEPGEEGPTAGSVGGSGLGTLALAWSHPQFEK

- Kd [1]: 1.9 nM
- koff [1]: 0.0041 s⁻¹
- kon [1]: 2.1e+06 M⁻¹ s⁻¹
- EC50 [2]: ~1.66 nM
- EC50 (baboon RAGE, on cells): ~1.25 nM
- EC50 [3]: ~1.5 nM
- Kd [4]: 8.2 nM
- koff [4]: 0.05 s⁻¹
- kon [4]: 6.1e+06 M⁻¹ s⁻¹
B1: chimeric XT-M4 (antibody, V domains shown)
VH: EVQLVESGGGLVQPGRSLKLSCVVSGFTFNNYWMTWIRQTPGKGLEWVASINNSGDNTYYPDSVKDRFTISRDNAKSTLYLQMNSLRSEDTATYYCTRGGDITTGFDYWGQGVMVTVSS
VL: DIQMTQSPSSMSVSLGDTITITCRASQDVGIYVNWFQQKPGKSPRRMIYRATNLADGVPSRFSGSRSGSIYSLTISSLESEDVADYHCLEFDEHPLTFGSGTKVEIK
modifications: N-linked oligosaccharide at Asn52 (CDR2) on part of the heavy chains
notes: rat XT-M4 variable regions fused to human kappa light chain and human IgG1 heavy chain constant regions; L234A and G237A in the human IgG1 Fc region; also called chimeric antibody XT-M4; XT-M4-A-1

— patent US20070253950A1 (Pfizer, published 2007)
